Measurements as given in paper PMC2517623.

Molecular target: Crm1 (Xpo1) (UniProt P30822)
Experiment: biotin-peptide streptavidin pulldown, stained gel

Substance: Ace2 122-150 (from UniProt P21192) pS122 peptide
- binding against the reference (reference: unphosphorylated 122-150 peptide, sites S122): weaker

Substance: Ace2 122-150 (from UniProt P21192) pS122 peptide, λ-phosphatase treated
- binding against the reference (reference: pS122 peptide, untreated, sites S122): stronger

Substance: Ace2 122-150 (from UniProt P21192) pS137 peptide
- binding against the reference (reference: unphosphorylated 122-150 peptide, sites S137): weaker

Substance: Ace2 122-150 (from UniProt P21192) pS137 peptide, λ-phosphatase treated
- binding against the reference (reference: pS137 peptide, untreated, sites S137): stronger
